Kd data for 1 substance are collected here from publication PMC2493294.

For the experiment, the target named is t-SNARE complex (syntaxin HT and SNAP-25) (rat) (UniProt P32851). Briefly: EPR spectroscopy.

What is called Kd is the concentration at which binding is half-saturated. The substance “complexin I C105A R56C, spin-labeled at position 56 (from UniProt P63041 2-134) (natural protein)” gave an equilibrium dissociation constant (Kd) of 50 µM.
